Experimental data from patent publication US20170306032A1.

Experiments:
[1] = biological target: human EphA2 recombinant protein (purified human EphA2 extracellular domain) (human) (UniProt P29317); test: end-point titration ELISA on huEphA2
[2] = biological target: human EphA2 receptor expressed on cells (HEK293-EphA2, CHO-EphA2, PC-3) (human) (UniProt P29317); test: FACS on CHO cells transfected with human EphA2
[3] = biological target: mouse EphA2 recombinant protein (Fc chimera, R&D Systems, cat#639-A2) (mouse) (UniProt Q03145); test: BLI, Octet Red, biotinylated mEphA2 on streptavidin sensors, steady state fit (column head prints EC50, title KD)
Chain of mouse EphA2 recombinant protein (Fc chimera, R&D Systems, cat#639-A2) (mouse) (Q03145 26-535, change not shown): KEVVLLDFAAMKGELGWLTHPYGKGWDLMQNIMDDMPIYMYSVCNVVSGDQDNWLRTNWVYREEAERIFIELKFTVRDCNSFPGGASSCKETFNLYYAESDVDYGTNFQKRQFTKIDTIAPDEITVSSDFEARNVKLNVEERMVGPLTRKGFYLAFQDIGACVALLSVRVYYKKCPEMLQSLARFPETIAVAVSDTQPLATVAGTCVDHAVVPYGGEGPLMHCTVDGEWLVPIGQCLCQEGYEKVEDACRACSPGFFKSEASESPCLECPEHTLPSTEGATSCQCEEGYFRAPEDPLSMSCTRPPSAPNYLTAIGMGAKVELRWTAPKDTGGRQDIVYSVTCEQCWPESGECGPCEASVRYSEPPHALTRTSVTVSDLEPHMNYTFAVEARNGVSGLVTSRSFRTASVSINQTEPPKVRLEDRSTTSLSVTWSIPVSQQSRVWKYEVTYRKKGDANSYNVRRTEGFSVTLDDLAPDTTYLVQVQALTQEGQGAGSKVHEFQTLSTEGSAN

[4] = biological target: human EphA2 recombinant protein (purified human EphA2 extracellular domain) (human) (UniProt P29317); test: SPR, Biacore 3000, immobilized huEphA2 extracellular domain, KDequilibrium
[5] = biological target: human EphA2 recombinant protein (purified human EphA2 extracellular domain) (human) (UniProt P29317); test: SPR, Biacore 3000, immobilized huEphA2 extracellular domain
[6] = biological target: mouse EphA2 recombinant protein (Fc chimera, R&D Systems, cat#639-A2) (mouse) (UniProt Q03145); test: end-point titration ELISA on mEphA2
[7] = biological target: human EphA2 recombinant protein (purified human EphA2 extracellular domain) (human) (UniProt P29317); test: SPR, Biacore 3000, immobilized huEphA2 extracellular domain, KDkinetic
[8] = biological target: human EphA2 recombinant protein (purified human EphA2 extracellular domain) (human) (UniProt P29317); test: BLI, Octet Red, biotinylated huEphA2 on streptavidin sensors, steady state fit (column head prints EC50, title KD)

Chain of human EphA2 recombinant protein (purified human EphA2 extracellular domain) (human) (P29317 24-537): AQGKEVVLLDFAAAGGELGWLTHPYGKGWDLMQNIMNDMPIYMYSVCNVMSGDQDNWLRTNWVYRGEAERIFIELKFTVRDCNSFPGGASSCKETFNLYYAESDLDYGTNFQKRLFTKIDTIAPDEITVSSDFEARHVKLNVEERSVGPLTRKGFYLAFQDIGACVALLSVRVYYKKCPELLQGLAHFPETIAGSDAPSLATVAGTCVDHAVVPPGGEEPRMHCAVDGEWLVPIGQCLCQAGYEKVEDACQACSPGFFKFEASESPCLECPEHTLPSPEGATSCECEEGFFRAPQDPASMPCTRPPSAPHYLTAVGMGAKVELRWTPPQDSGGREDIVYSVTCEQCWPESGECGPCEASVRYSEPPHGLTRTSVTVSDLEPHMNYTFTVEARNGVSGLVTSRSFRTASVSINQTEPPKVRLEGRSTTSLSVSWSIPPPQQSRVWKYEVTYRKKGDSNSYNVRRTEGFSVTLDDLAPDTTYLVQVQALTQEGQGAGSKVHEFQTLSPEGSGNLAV
Chain of human EphA2 receptor expressed on cells (HEK293-EphA2, CHO-EphA2, PC-3) (human) (P29317 24-976): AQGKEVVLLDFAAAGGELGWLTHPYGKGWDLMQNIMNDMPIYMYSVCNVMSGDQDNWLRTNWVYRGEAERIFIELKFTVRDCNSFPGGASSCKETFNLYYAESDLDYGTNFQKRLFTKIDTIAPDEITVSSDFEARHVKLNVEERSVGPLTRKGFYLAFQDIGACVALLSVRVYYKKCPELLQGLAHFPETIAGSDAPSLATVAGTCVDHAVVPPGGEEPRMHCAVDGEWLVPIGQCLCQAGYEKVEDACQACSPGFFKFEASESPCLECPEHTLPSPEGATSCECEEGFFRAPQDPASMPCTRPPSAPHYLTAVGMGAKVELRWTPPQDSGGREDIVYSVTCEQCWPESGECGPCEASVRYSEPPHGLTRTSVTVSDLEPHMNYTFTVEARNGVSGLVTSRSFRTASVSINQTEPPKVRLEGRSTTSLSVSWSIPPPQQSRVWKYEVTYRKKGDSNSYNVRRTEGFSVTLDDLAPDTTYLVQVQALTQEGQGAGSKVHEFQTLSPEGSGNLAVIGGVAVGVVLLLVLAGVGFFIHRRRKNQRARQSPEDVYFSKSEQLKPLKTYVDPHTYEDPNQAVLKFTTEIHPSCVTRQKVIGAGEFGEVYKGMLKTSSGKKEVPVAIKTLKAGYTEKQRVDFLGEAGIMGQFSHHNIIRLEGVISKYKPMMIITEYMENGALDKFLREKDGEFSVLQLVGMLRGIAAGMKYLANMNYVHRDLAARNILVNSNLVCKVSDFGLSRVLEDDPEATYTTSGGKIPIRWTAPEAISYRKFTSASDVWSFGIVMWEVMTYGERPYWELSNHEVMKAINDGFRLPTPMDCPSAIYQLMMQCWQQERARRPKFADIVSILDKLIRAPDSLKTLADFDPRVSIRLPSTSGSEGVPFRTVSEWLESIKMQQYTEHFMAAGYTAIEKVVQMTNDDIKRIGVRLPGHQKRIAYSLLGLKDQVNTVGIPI

B1: B6 modified CH2 domain (affinity matured, loop 1 PYLHDD, loop 2 of E10) (designed binder)
chain: GPSVFLFPPKPKDTLMISRTPEVTCVVVDPYLHDDEVKFNWYVDGAEVHHAQTKPRQYDPLYGYRVVSVLTVLHQDWLNGKEYKCKVSNKALPAPIEKTISKAK
EC50 [1]: 6.54 nM
EC50 [2]: 151 nM
Kd [3]: 30 nM
Kd [4]: 56 nM
koff [5]: 0.0496 s⁻¹
kon [5]: 716000 M⁻¹ s⁻¹
EC50 [6]: 3.5 nM
Kd [7]: 69 nM
Kd [8]: 39 nM
